Here are results for 3 molecules from article PMC12033236.

For data set [1], the target named is T1, GST-GS2 (OsGRF4) (Oryza sativa, UniProt Q6ZIK5 1-394).
T1 sequence: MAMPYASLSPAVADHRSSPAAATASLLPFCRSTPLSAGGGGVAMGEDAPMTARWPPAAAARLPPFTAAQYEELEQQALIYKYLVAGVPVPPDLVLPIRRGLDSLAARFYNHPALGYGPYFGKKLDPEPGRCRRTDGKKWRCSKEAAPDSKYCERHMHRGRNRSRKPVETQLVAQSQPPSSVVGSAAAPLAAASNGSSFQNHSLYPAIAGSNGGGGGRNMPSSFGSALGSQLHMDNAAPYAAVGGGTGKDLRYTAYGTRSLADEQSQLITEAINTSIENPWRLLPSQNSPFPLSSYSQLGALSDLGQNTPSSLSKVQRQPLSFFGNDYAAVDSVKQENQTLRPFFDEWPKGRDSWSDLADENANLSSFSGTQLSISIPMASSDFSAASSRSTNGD
Nature of the data set: competition.

In data set [2] the target is T1, GST-GS2 (OsGRF4). The experiment in a line: EMSA. Background: In EMSA bound probe runs differently from free probe, usually more slowly.

B1: SUG1 unlabeled probe A (competitor) (dsDNA)
DNA 1: CGCACAGTCCACCCAAAGCCGTTGTTA
DNA 2: TAACAACGGCTTTGGGTGGACTGTGCG
Turning to B1, the binding result with GST-GS2 (OsGRF4) [1] is given as “binds”.

B2: SUG1 probe A-m (dsDNA)
DNA 1: CGCTACGTTCACCCAAAGCCGTTGTTA
DNA 2: TAACAACGGCTTTGGGTGAACGTAGCG
Take B2: the binding result in the data set with GST-GS2 (OsGRF4) [2] is on record as “no binding”.

B3: SUG1 probe A (dsDNA)
DNA 1: CGCACAGTCCACCCAAAGCCGTTGTTA
DNA 2: TAACAACGGCTTTGGGTGGACTGTGCG
As to B3, the binding result with GST-GS2 (OsGRF4) [2] is “binds”.
